Measurements as given in patent publication US20110028686A1 (published 2011).
Read-outs that look alike come from different tables or passages of the source. Square brackets hold non-standard residues; d marks the D form. Primed or numbered codes have the meaning given here. Ends that are not written are not given here. * marks the point of attachment. acetamidofluorescein″ = acetamidofluorescein (5-iodoacetamidofluorescein attached to the C-terminal Cys); Fluorescein(5-NHCOCH2) = O=C(C*)Nc1ccc2c(c1)C(=O)OC21c2ccc(O)cc2Oc2cc(O)ccc21; pS = N[C@@H](COP(=O)(O)O)C(=O)O

B1: p4102 (designed binder)
peptide: GPSQPTYPGDDAPVEDLIRFVSRLRYIADLINRYC(5‑iodoacetamidofluorescein)-NH2
notes: Mutant with a single amino acid deletion in the alpha-helix; Amino terminal portion from aPP (e.g., residues 1-19); also called p4124 (labelled form, by order and mass)
B2: peptide C^U (peptide)
peptide: RRLSFFYILLDLYLDAPGVC(acetamidofluorescein)-NH2
notes: also called Peptide C (unphosphorylated)
B3: p4100 (designed binder)
peptide: GPSQPTYPGDDAPVEDLIRFVGRLLRYFGDEINRYC(5‑iodoacetamidofluorescein)-NH2
notes: As for p4099: amino terminal portion from aPP (e.g., residues 1-19); also called p4122 (labelled form, by order and mass)
B4: p4101 (designed binder)
peptide: GPSQPTYPGDDAPVEDLIRFVGRLLAYFGDDINRYC(5‑iodoacetamidofluorescein)-NH2
notes: As for p4099: amino terminal portion from aPP (e.g., residues 1-19); also called p4123 (labelled form, by order and mass)
B5: PPKID6 S18E (designed binder)
peptide: GISWPTFEGDDAPVRRLEFFYILLDLYLDAPGVC(Fluorescein(5-NHCOCH2))-NH2
modifications: N-terminus assumed
SMILES: CC[C@H](C)[C@H](NC(=O)CN)C(=O)N[C@@H](CO)C(=O)N[C@@H](Cc1c[nH]c2ccccc12)C(=O)N1CCC[C@H]1C(=O)N[C@H](C(=O)N[C@@H](Cc1ccccc1)C(=O)N[C@@H](CCC(=O)O)C(=O)NCC(=O)N[C@@H](CC(=O)O)C(=O)N[C@@H](CC(=O)O)C(=O)N[C@@H](C)C(=O)N1CCC[C@H]1C(=O)N[C@H](C(=O)N[C@@H](CCCNC(=N)N)C(=O)N[C@@H](CCCNC(=N)N)C(=O)N[C@@H](CC(C)C)C(=O)N[C@@H](CCC(=O)O)C(=O)N[C@@H](Cc1ccccc1)C(=O)N[C@@H](Cc1ccccc1)C(=O)N[C@@H](Cc1ccc(O)cc1)C(=O)N[C@H](C(=O)N[C@@H](CC(C)C)C(=O)N[C@@H](CC(C)C)C(=O)N[C@@H](CC(=O)O)C(=O)N[C@@H](CC(C)C)C(=O)N[C@@H](Cc1ccc(O)cc1)C(=O)N[C@@H](CC(C)C)C(=O)N[C@@H](CC(=O)O)C(=O)N[C@@H](C)C(=O)N1CCC[C@H]1C(=O)NCC(=O)N[C@H](C(=O)N[C@@H](CSCC(=O)Nc1ccc2c(c1)C(=O)OC21c2ccc(O)cc2Oc2cc(O)ccc21)C(N)=O)C(C)C)[C@@H](C)CC)C(C)C)[C@@H](C)O
B6: PPKID6^P (designed binder)
peptide: GISWPTFEGDDAPVRRL[pS]FFYILLDLYLDAPGVC(Fluorescein(5-NHCOCH2))-NH2
modifications: N-terminus assumed
SMILES: CC[C@H](C)[C@H](NC(=O)CN)C(=O)N[C@@H](CO)C(=O)N[C@@H](Cc1c[nH]c2ccccc12)C(=O)N1CCC[C@H]1C(=O)N[C@H](C(=O)N[C@@H](Cc1ccccc1)C(=O)N[C@@H](CCC(=O)O)C(=O)NCC(=O)N[C@@H](CC(=O)O)C(=O)N[C@@H](CC(=O)O)C(=O)N[C@@H](C)C(=O)N1CCC[C@H]1C(=O)N[C@H](C(=O)N[C@@H](CCCNC(=N)N)C(=O)N[C@@H](CCCNC(=N)N)C(=O)N[C@@H](CC(C)C)C(=O)N[C@@H](COP(=O)(O)O)C(=O)N[C@@H](Cc1ccccc1)C(=O)N[C@@H](Cc1ccccc1)C(=O)N[C@@H](Cc1ccc(O)cc1)C(=O)N[C@H](C(=O)N[C@@H](CC(C)C)C(=O)N[C@@H](CC(C)C)C(=O)N[C@@H](CC(=O)O)C(=O)N[C@@H](CC(C)C)C(=O)N[C@@H](Cc1ccc(O)cc1)C(=O)N[C@@H](CC(C)C)C(=O)N[C@@H](CC(=O)O)C(=O)N[C@@H](C)C(=O)N1CCC[C@H]1C(=O)NCC(=O)N[C@H](C(=O)N[C@@H](CSCC(=O)Nc1ccc2c(c1)C(=O)OC21c2ccc(O)cc2Oc2cc(O)ccc21)C(N)=O)C(C)C)[C@@H](C)CC)C(C)C)[C@@H](C)O
notes: also called PPKID6 (phosphorylated)

Legend:
[1] = target: T1, CBP KIX, wild type (Example 20) (UniProt P45481 586-665, limits assumed); experiment: FP, fluorescein-labelled PPKID4^P variant titrated with CBP KIX
T1 construct: domain: KIX; also called wild type CBP KIX; CBP MX
T1 sequence (P45481 586-665 limits assumed): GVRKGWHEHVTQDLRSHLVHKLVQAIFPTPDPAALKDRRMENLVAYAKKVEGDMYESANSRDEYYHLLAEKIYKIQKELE

[2] = target: T1, CBP KIX, wild type (Example 20); experiment: FP with CBP KIX
HisKIX [3] = target: T2, HisKIX (UniProt P45481 586-672); experiment: FP, fluorescein-labelled peptide titrated with HisKIX, 25 C
T2 construct: range 586-672; the residue numbers fit mouse CBP; also called His-tagged CBP KIX domain; CBP KIX; not shown: amino-terminal hexahistidine tag and linker of pET15b
T2 sequence (P45481 586-672): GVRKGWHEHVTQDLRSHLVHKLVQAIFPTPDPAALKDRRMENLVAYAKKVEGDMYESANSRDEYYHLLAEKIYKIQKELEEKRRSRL

HisKIX [4] = target: T2, HisKIX; experiment: FP with HisKIX; end of the range assigned by Table 1
[5] = target: T3, Human recombinant Bcl-2 (1-205), soluble GST-fusion (Santa Cruz Biotechnology) (human, UniProt P10415 1-205); experiment: fluorescence emission titration, fluorescein-labelled peptide + serially diluted Bcl-2, 4 C, PBS
T3 construct: Bought; also called GST-Bcl-2; not shown: glutathione S-transferase (GST) fusion partner
T3 sequence (P10415 1-205): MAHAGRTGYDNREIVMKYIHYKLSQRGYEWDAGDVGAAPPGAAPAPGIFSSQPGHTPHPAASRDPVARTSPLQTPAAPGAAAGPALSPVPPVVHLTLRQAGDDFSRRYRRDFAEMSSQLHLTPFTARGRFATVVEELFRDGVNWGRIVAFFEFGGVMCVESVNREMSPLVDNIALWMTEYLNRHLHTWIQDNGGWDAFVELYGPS

HisKIX [6] = target: T2, HisKIX; experiment: FP, fluorescein-labelled peptide titrated with HisKIX, 25 C; remark: listed apart in the source
[7] = target: carbonic anhydrase II (Sigma); experiment: FP, 50 nM fluorescein-labelled peptide titrated with carbonic anhydrase II, 25 C
Chain of carbonic anhydrase II (Sigma) (P00921 2-260): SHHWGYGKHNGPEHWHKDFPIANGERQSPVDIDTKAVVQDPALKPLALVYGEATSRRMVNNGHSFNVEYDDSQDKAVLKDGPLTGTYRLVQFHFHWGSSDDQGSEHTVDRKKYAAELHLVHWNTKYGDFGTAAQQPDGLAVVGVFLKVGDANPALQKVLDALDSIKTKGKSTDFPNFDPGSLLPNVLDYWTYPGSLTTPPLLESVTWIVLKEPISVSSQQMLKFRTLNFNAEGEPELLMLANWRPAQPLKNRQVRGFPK

HisKIX [8] = target: T2, HisKIX; experiment: FP with HisKIX

Row | Binder | Kd [1] | ΔΔG relative to wild type PPKID4^P [2] | other results
1 | GPSQPTYPGDDAPVRRL[pS]FAYILLDLYLDAPGVC(acetamidofluorescein″)-NH2 (designed binder) [PPKID4^P F20A] | 2550 nM | 0.85 kcal/mol | –
2 | GPSQPTYPGDDAPVRRL[pS]FFYILLDLYADAPGVC(acetamidofluorescein″)-NH2 (designed binder) [PPKID4^P L28A] | 830 nM | 0.18 kcal/mol | –
3 | GPSQPTYAGDDAPVRRL[pS]FFYILLDLYLDAPGVC(acetamidofluorescein″)-NH2 (designed binder) [PPKID4^P P8A] | 1070 nM | 0.33 kcal/mol | –
4 | GPSQPTYPGDDAPVRRA[pS]FFYILLDLYLDAPGVC(acetamidofluorescein″)-NH2 (designed binder) [PPKID4^P L17A] | 680 nM | 0.07 kcal/mol | –
5 | GPSQPTYPGDDAPVRRL[pS]FFYILADLYLDAPGVC(acetamidofluorescein″)-NH2 (designed binder) [PPKID4^P L24A] | 1160 nM | 0.38 kcal/mol | –
6 | GPSQPTYPGDDAPVRRL[pS]FFYILLDLALDAPGVC(acetamidofluorescein″)-NH2 (designed binder) [PPKID4^P Y27A] | 3090 nM | 0.96 kcal/mol | –
7 | GASQPTYPGDDAPVRRL[pS]FFYILLDLYLDAPGVC(acetamidofluorescein″)-NH2 (designed binder) [PPKID4^P P2A] | 870 nM | 0.21 kcal/mol | –
8 | GPSQATYPGDDAPVRRL[pS]FFYILLDLYLDAPGVC(acetamidofluorescein″)-NH2 (designed binder) [PPKID4^P P5A] | 1020 nM | 0.3 kcal/mol | –
9 | GASPHTSSGDDAPVRRLSFFDILLDLYLDAPGVC(acetamidofluorescein)-NH2 (designed binder, not fully specified, also called PPKID3 (unphosphorylated)) [PPKID3^U] | – | – | Kd (HisKIX [3]): 6700 nM; fold change in affinity against peptide C^U (HisKIX [4]): 1 to 3 fold; ΔΔG relative to peptide C^U (HisKIX [4]): -0.7 kcal/mol
10 | B1 | – | – | Kd [5]: 3700 nM
11 | B2 | – | – | Kd (HisKIX [3]): 21500 nM; Kd (HisKIX [6]): 21500 nM; Kd [7]: 66000 nM; ΔΔG relative to KID-B^U (HisKIX [8]): > -1.5 kcal/mol
12 | B3 | – | – | Kd [5]: 401 nM
13 | B4 | – | – | Kd [5]: 811 nM
14 | B5 | – | – | Kd (HisKIX [3]): 10900 nM; fold decrease in affinity against PPKID6^U (HisKIX [8]): 7 fold; ΔΔG relative to PPKID6^U (HisKIX [8]): 1.2 kcal/mol
15 | B6 | – | – | Kd (HisKIX [3]): 624 nM; fold enhancement in affinity over unphosphorylated PPKID6 (HisKIX [8]): 2 fold; ΔΔG relative to unphosphorylated PPKID6 (HisKIX [8]): -0.5 kcal/mol
